Laboratory results published in patent US20230242635A1 (published 2023).

What was measured:
[1] = target: canine FcRn complex (FcRn-α subunit and β-microglobulin), biotin labeled by BirA, captured on SA chip (Example 5) (canine); test: SPR (Biacore), biotinylated FcRn captured on SA chip, IgG flowed, pH 6, 15 C
[2] = target: T1, canine FcRn complex (FcRn-α subunit and β-microglobulin), biotin labeled by BirA, captured on SA chip … (canine, UniProt A0A8I3PFR8 25-296, biotin label by BirA enzymatic biotinylation (BAP tag)); test: as above
T1 sequence (A0A8I3PFR8 entry or part of it, one chain of several): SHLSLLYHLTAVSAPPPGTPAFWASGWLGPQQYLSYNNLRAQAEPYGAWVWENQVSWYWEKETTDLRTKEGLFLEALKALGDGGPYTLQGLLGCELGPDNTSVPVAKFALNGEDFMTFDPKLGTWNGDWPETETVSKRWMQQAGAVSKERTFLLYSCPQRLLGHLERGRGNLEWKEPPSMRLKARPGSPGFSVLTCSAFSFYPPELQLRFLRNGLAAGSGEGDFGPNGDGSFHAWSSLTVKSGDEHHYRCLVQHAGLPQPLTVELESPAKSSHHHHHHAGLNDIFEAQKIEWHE

[3] = target: T1, canine FcRn complex (FcRn-α subunit and …); test: SPR (Biacore), biotinylated FcRn captured on SA chip, IgG flowed, pH 7.4, 15 C

Row | Kd [1] [nM] | Kd [2] [nM] | Kd [3] [nM] | Binder
1 | 95.5 | – | – | caninized anti-NGF antibody ZTS-841 (mAb2 of Table 4), canine IgGA, WT (antibody, from a related filing, part only) heavy: EVQLVESGGDLVKPGGSLRLSCVASGFTFSSHGMHWVRQSPGKGLQWVAVINSGGSSTYYTDAVKGRFTISRDNAKNTVYLQMNSLRAEDTAMYYCAKESVGGWEQLVGPHFDYWGQGTLVIVSSASTTAPSVFPLAPSCGSTSGSTVALACLVSGYFPEPVTVSWNSGSLTSGVHTFPSVLQSSGLHSLSSMVTVPSSRWPSETFTCNVVHPASNTKVDKPVFNECRCTDTPPCPVPEPLGGPSVLIFPPKPKDILRITRTPEVTCVVLDLGREDPEVQISWFVDGKEVHTAKTQSREQQFNGTYRVVSVLPIEHQDWLTGKEFKCRVNHIDLPSPIERTISKARGRAHKPSVYVLPPSPKELSSSDTVSITCLIKDFYPPDIDVEWQSNGQQEPERKHRMTPPQLDEDGSYFLYSKLSVDKSRWQQGDPFTCAVMHETLQNHYTDLSLSHSPGK VL: QSVLTQPTSVSGSLGQRVTISCSGSTNNIGILGASWYQLFPGKAPKLLVYGNGNRPSGVPDRFSGADSGDSVTLTITGLQAEDEADYYCQSFDTTLGAHVFGGGTHLTVL
2 | – | 14.2 | 146000 | caninized anti-IL31 antibody 34D03 (mAb1), canine IgGB, N434M (antibody) chain 1: EVQLVESGGDLVKPGGSLRLSCVASGFTFSNYGMSWVRQAPGKGLQWVATISYGGSYTYYPDNIKGRFTISRDNAKNTLYLQMNSLRAEDTAMYYCVRGYGYDTMDYWGQGTLVTVSSASTTAPSVFPLAPSCGSTSGSTVALACLVSGYFPEPVTVSWNSGSLTSGVHTFPSVLQSSGLYSLSSMVTVPSSRWPSETFTCNVAHPASKTKVDKPVPKRENGRVPRPPDCPKCPAPEMLGGPSVFIFPPKPKDTLLIARTPEVTCVVVDLDPEDPEVQISWFVDGKQMQTAKTQPREEQFNGTYRVVSVLPIGHQDWLKGKQFTCKVNNKALPSPIERTISKARGQAHQPSVYVLPPSREELSKNTVSLTCLIKDFFPPDIDVEWQSNGQQEPESKYRTTPPQLDEDGSYFLYSKLSVDKSRWQRGDTFICAVMHEALHMHYTQESLSHSPGK chain 2: EIVMTQSPASLSLSQEEKVTITCKASQSVSFAGTGLMHWYQQKPGQAPKLLIYRASNLEAGVPSRFSGSGSGTDFSFTISSLEPEDVAVYYCQQSREYPWTFGQGTKLEIK
3 | – | 6.16 | 2750 | caninized anti-IL31 antibody 34D03 (mAb1), canine IgGB, N434V (antibody) chain 1: EVQLVESGGDLVKPGGSLRLSCVASGFTFSNYGMSWVRQAPGKGLQWVATISYGGSYTYYPDNIKGRFTISRDNAKNTLYLQMNSLRAEDTAMYYCVRGYGYDTMDYWGQGTLVTVSSASTTAPSVFPLAPSCGSTSGSTVALACLVSGYFPEPVTVSWNSGSLTSGVHTFPSVLQSSGLYSLSSMVTVPSSRWPSETFTCNVAHPASKTKVDKPVPKRENGRVPRPPDCPKCPAPEMLGGPSVFIFPPKPKDTLLIARTPEVTCVVVDLDPEDPEVQISWFVDGKQMQTAKTQPREEQFNGTYRVVSVLPIGHQDWLKGKQFTCKVNNKALPSPIERTISKARGQAHQPSVYVLPPSREELSKNTVSLTCLIKDFFPPDIDVEWQSNGQQEPESKYRTTPPQLDEDGSYFLYSKLSVDKSRWQRGDTFICAVMHEALHVHYTQESLSHSPGK chain 2: EIVMTQSPASLSLSQEEKVTITCKASQSVSFAGTGLMHWYQQKPGQAPKLLIYRASNLEAGVPSRFSGSGSGTDFSFTISSLEPEDVAVYYCQQSREYPWTFGQGTKLEIK
4 | – | 5.91 | 21.8 | caninized anti-IL31 antibody 34D03 (mAb1), canine IgGB, N434Q (antibody) chain 1: EVQLVESGGDLVKPGGSLRLSCVASGFTFSNYGMSWVRQAPGKGLQWVATISYGGSYTYYPDNIKGRFTISRDNAKNTLYLQMNSLRAEDTAMYYCVRGYGYDTMDYWGQGTLVTVSSASTTAPSVFPLAPSCGSTSGSTVALACLVSGYFPEPVTVSWNSGSLTSGVHTFPSVLQSSGLYSLSSMVTVPSSRWPSETFTCNVAHPASKTKVDKPVPKRENGRVPRPPDCPKCPAPEMLGGPSVFIFPPKPKDTLLIARTPEVTCVVVDLDPEDPEVQISWFVDGKQMQTAKTQPREEQFNGTYRVVSVLPIGHQDWLKGKQFTCKVNNKALPSPIERTISKARGQAHQPSVYVLPPSREELSKNTVSLTCLIKDFFPPDIDVEWQSNGQQEPESKYRTTPPQLDEDGSYFLYSKLSVDKSRWQRGDTFICAVMHEALHQHYTQESLSHSPGK chain 2: EIVMTQSPASLSLSQEEKVTITCKASQSVSFAGTGLMHWYQQKPGQAPKLLIYRASNLEAGVPSRFSGSGSGTDFSFTISSLEPEDVAVYYCQQSREYPWTFGQGTKLEIK
5 | – | 20.2 | 6960 | caninized anti-IL31 antibody 34D03 (mAb1), canine IgGB, N434S (antibody) chain 1: EVQLVESGGDLVKPGGSLRLSCVASGFTFSNYGMSWVRQAPGKGLQWVATISYGGSYTYYPDNIKGRFTISRDNAKNTLYLQMNSLRAEDTAMYYCVRGYGYDTMDYWGQGTLVTVSSASTTAPSVFPLAPSCGSTSGSTVALACLVSGYFPEPVTVSWNSGSLTSGVHTFPSVLQSSGLYSLSSMVTVPSSRWPSETFTCNVAHPASKTKVDKPVPKRENGRVPRPPDCPKCPAPEMLGGPSVFIFPPKPKDTLLIARTPEVTCVVVDLDPEDPEVQISWFVDGKQMQTAKTQPREEQFNGTYRVVSVLPIGHQDWLKGKQFTCKVNNKALPSPIERTISKARGQAHQPSVYVLPPSREELSKNTVSLTCLIKDFFPPDIDVEWQSNGQQEPESKYRTTPPQLDEDGSYFLYSKLSVDKSRWQRGDTFICAVMHEALHSHYTQESLSHSPGK chain 2: EIVMTQSPASLSLSQEEKVTITCKASQSVSFAGTGLMHWYQQKPGQAPKLLIYRASNLEAGVPSRFSGSGSGTDFSFTISSLEPEDVAVYYCQQSREYPWTFGQGTKLEIK
6 | – | 34.2 | 554 | caninized anti-IL31 antibody 34D03 (mAb1), canine IgGB, N434T (antibody) chain 1: EVQLVESGGDLVKPGGSLRLSCVASGFTFSNYGMSWVRQAPGKGLQWVATISYGGSYTYYPDNIKGRFTISRDNAKNTLYLQMNSLRAEDTAMYYCVRGYGYDTMDYWGQGTLVTVSSASTTAPSVFPLAPSCGSTSGSTVALACLVSGYFPEPVTVSWNSGSLTSGVHTFPSVLQSSGLYSLSSMVTVPSSRWPSETFTCNVAHPASKTKVDKPVPKRENGRVPRPPDCPKCPAPEMLGGPSVFIFPPKPKDTLLIARTPEVTCVVVDLDPEDPEVQISWFVDGKQMQTAKTQPREEQFNGTYRVVSVLPIGHQDWLKGKQFTCKVNNKALPSPIERTISKARGQAHQPSVYVLPPSREELSKNTVSLTCLIKDFFPPDIDVEWQSNGQQEPESKYRTTPPQLDEDGSYFLYSKLSVDKSRWQRGDTFICAVMHEALHTHYTQESLSHSPGK chain 2: EIVMTQSPASLSLSQEEKVTITCKASQSVSFAGTGLMHWYQQKPGQAPKLLIYRASNLEAGVPSRFSGSGSGTDFSFTISSLEPEDVAVYYCQQSREYPWTFGQGTKLEIK
7 | – | 0.906 | 3.11 | caninized anti-IL31 antibody 34D03 (mAb1), canine IgGB, N434R (antibody) chain 1: EVQLVESGGDLVKPGGSLRLSCVASGFTFSNYGMSWVRQAPGKGLQWVATISYGGSYTYYPDNIKGRFTISRDNAKNTLYLQMNSLRAEDTAMYYCVRGYGYDTMDYWGQGTLVTVSSASTTAPSVFPLAPSCGSTSGSTVALACLVSGYFPEPVTVSWNSGSLTSGVHTFPSVLQSSGLYSLSSMVTVPSSRWPSETFTCNVAHPASKTKVDKPVPKRENGRVPRPPDCPKCPAPEMLGGPSVFIFPPKPKDTLLIARTPEVTCVVVDLDPEDPEVQISWFVDGKQMQTAKTQPREEQFNGTYRVVSVLPIGHQDWLKGKQFTCKVNNKALPSPIERTISKARGQAHQPSVYVLPPSREELSKNTVSLTCLIKDFFPPDIDVEWQSNGQQEPESKYRTTPPQLDEDGSYFLYSKLSVDKSRWQRGDTFICAVMHEALHRHYTQESLSHSPGK chain 2: EIVMTQSPASLSLSQEEKVTITCKASQSVSFAGTGLMHWYQQKPGQAPKLLIYRASNLEAGVPSRFSGSGSGTDFSFTISSLEPEDVAVYYCQQSREYPWTFGQGTKLEIK
8 | – | 1.98 | 25300 | caninized anti-IL31 antibody 34D03 (mAb1), canine IgGB, N434W (antibody) chain 1: EVQLVESGGDLVKPGGSLRLSCVASGFTFSNYGMSWVRQAPGKGLQWVATISYGGSYTYYPDNIKGRFTISRDNAKNTLYLQMNSLRAEDTAMYYCVRGYGYDTMDYWGQGTLVTVSSASTTAPSVFPLAPSCGSTSGSTVALACLVSGYFPEPVTVSWNSGSLTSGVHTFPSVLQSSGLYSLSSMVTVPSSRWPSETFTCNVAHPASKTKVDKPVPKRENGRVPRPPDCPKCPAPEMLGGPSVFIFPPKPKDTLLIARTPEVTCVVVDLDPEDPEVQISWFVDGKQMQTAKTQPREEQFNGTYRVVSVLPIGHQDWLKGKQFTCKVNNKALPSPIERTISKARGQAHQPSVYVLPPSREELSKNTVSLTCLIKDFFPPDIDVEWQSNGQQEPESKYRTTPPQLDEDGSYFLYSKLSVDKSRWQRGDTFICAVMHEALHWHYTQESLSHSPGK chain 2: EIVMTQSPASLSLSQEEKVTITCKASQSVSFAGTGLMHWYQQKPGQAPKLLIYRASNLEAGVPSRFSGSGSGTDFSFTISSLEPEDVAVYYCQQSREYPWTFGQGTKLEIK
9 | – | 2.71 | 1900 | caninized anti-IL31 antibody (mAb1), canine IgGB, N434Y (antibody) chain 1: EVQLVESGGDLVKPGGSLRLSCVASGFTFSNYGMSWVRQAPGKGLQWVATISYGGSYTYYPDNIKGRFTISRDNAKNTLYLQMNSLRAEDTAMYYCVRGYGYDTMDYWGQGTLVTVSSASTTAPSVFPLAPSCGSTSGSTVALACLVSGYFPEPVTVSWNSGSLTSGVHTFPSVLQSSGLYSLSSMVTVPSSRWPSETFTCNVAHPASKTKVDKPVPKRENGRVPRPPDCPKCPAPEMLGGPSVFIFPPKPKDTLLIARTPEVTCVVVDLDPEDPEVQISWFVDGKQMQTAKTQPREEQFNGTYRVVSVLPIGHQDWLKGKQFTCKVNNKALPSPIERTISKARGQAHQPSVYVLPPSREELSKNTVSLTCLIKDFFPPDIDVEWQSNGQQEPESKYRTTPPQLDEDGSYFLYSKLSVDKSRWQRGDTFICAVMHEALHYHYTQESLSHSPGK chain 2: EIVMTQSPASLSLSQEEKVTITCKASQSVSFAGTGLMHWYQQKPGQAPKLLIYRASNLEAGVPSRFSGSGSGTDFSFTISSLEPEDVAVYYCQQSREYPWTFGQGTKLEIK
